{"source": "paper PMC5915598", "about": "“Structural basis for the activation of acid ceramidase” (Nature Communications, 2018)", "binders": {"B1": {"name": "human acid ceramidase (aCDase, ASAH1) α-subunit (domain or fragment, UniProt Q13510 22-142, looked up)", "chain": "QHAPPWTEDCRKSTYPPSGPTYRGAVPWYTINLDLPPYKRWHELMLDKAPVLKVIVNSLKNMINTFVPSGKVMQVVDEKLPGLLGNFPGPFEEEMKGIAAVTDIPLGEIISFNIFYELFTI", "modifications": "N-glycosylated (insect cell glycans); disulfide C31 to C340 of the β-subunit", "notes": "acid ceramidase, human, UniProt Q13510 variant Ile93Val; the construct spans residues 22-395 and autocleaves at the peptide bond between Ile 142 and Cys 143, so the α-subunit is residues 22-142; no removal of the tag is told; Residues 141 and 142 are disordered in the structure; also called 13 kDa α-subunit"}}, "molecular_target": "T1, human acid ceramidase (aCDase, ASAH1) β-subunit (human, UniProt Q13510 143-395, N-glycosylated (insect cell glycans); disulfide C340 to C31 of the α-subunit; disulfide C388/C392)", "T1 construct": "acid ceramidase, human, UniProt Q13510; the construct spans residues 22-395 and autocleaves before Cys 143, which becomes the N terminus of the β-subunit: residues 143-395; Made as one chain with the α-subunit and set free by autocleavage; also called 30 kDa β-subunit", "T1 sequence (looked up)": "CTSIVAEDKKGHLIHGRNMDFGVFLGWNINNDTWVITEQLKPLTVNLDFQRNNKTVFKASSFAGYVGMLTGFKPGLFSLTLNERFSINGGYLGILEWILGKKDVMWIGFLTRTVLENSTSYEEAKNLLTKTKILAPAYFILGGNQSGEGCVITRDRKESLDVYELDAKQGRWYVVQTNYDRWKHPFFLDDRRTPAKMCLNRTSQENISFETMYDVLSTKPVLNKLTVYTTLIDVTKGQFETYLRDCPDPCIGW", "test": "crystal structure; autocleaved human aCDase, incubated with 1 mM ceranib-2 and 1 mM Triton X-100, crystallised at 22 °C in 100 mM sodium phosphate-citrate pH 4.3, 200 mM Li2SO4, 20% PEG 1000; the two subunits come from one chain and are also linked by a disulfide", "settings": "both partners purified"}
{"binder": "B1", "values": [{"measurement": "binding result", "value": "binds"}]}
